Seven molecules from US20220204643A1 (published 2022) can be followed below.

The target in assay [1] is T1, neural retina leucine zipper, transcript variant X4 (human, UniProt P54845 1-237).
T1 construct: also called NRL

In assay [2] the target is T2, Egf like and emi domain containing 1, pseudogene (human, UniProt Q0D2K5 1-195).
T2 construct: on protein array; also called EGFEM1P
T2 sequence: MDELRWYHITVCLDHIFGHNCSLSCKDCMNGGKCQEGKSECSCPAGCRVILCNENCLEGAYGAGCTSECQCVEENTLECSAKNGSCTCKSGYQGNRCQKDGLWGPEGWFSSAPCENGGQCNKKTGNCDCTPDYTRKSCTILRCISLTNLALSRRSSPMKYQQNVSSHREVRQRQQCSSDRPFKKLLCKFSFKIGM
Briefly: protein array.

Assay [3] deals with T3, killer cell lectin like receptor C1, transcript variant 3 (human, UniProt P26715 1-233).
T3 construct: also called KLRC1

The target of assay [4] is T4, GRB10 interacting GYF protein 1, transcript variant X10 (human, UniProt O75420 1-1035).
T4 construct: also called GIGYF1
T4 sequence: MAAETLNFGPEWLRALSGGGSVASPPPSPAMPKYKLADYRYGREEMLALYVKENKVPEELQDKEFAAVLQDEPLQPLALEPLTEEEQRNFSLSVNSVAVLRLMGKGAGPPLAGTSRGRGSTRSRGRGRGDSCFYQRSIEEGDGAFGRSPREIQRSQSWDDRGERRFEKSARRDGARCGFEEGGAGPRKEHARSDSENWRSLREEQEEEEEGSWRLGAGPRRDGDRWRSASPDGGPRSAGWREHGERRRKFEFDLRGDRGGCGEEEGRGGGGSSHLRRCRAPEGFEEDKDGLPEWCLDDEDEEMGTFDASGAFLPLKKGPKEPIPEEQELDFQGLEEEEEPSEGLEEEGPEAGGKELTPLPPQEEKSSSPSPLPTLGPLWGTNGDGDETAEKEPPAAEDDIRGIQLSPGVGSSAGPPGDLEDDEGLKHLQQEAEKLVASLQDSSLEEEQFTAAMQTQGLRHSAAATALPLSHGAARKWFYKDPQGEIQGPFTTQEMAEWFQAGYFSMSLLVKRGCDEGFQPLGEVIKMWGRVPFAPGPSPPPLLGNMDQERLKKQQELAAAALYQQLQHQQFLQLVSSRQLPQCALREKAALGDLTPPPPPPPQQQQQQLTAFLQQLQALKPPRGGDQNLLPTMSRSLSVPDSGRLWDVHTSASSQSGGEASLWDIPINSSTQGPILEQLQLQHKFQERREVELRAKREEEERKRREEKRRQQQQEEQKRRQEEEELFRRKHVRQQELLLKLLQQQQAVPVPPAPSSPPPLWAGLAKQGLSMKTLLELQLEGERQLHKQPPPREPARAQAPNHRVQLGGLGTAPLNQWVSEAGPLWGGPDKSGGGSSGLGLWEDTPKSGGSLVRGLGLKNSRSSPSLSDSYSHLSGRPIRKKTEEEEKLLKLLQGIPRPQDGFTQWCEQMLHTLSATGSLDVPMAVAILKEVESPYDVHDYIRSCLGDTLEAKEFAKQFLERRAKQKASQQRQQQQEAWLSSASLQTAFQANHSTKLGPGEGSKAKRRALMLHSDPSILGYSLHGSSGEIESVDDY

In assay [5] the target is T5, Kirre like nephrin family adhesion molecule 1 (human, UniProt Q96J84 17-757, limits assumed).
T5 sequence: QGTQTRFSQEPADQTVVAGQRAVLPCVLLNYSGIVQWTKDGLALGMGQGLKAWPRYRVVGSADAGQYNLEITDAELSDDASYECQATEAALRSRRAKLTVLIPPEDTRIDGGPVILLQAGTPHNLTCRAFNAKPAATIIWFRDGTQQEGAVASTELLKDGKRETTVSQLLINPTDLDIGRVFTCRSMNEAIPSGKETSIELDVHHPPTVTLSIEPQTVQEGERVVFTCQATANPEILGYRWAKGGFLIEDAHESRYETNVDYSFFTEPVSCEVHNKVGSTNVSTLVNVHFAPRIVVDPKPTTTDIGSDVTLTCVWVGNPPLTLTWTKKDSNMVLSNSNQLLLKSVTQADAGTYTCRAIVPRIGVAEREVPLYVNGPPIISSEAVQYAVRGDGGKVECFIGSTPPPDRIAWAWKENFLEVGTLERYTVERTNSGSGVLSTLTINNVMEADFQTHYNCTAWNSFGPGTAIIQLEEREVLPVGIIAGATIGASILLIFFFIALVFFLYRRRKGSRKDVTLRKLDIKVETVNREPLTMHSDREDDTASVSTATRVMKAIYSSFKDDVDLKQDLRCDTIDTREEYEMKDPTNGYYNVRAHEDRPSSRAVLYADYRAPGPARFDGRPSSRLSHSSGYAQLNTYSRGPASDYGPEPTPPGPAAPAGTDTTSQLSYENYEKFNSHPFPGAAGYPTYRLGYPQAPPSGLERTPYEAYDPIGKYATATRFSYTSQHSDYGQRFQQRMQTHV

The target of assay [6] is T6, Ankyrin repeat domain 20 family member a5, pseudogene (human, UniProt A0PJZ0 1-165).
T6 construct: also called ANKRD20A5P

Assay [7] concerns the target T7, oxidation resistance 1, transcript variant 1 (human, UniProt Q8N573 90-874, limits assumed).
T7 construct: also called OXR1
T7 sequence: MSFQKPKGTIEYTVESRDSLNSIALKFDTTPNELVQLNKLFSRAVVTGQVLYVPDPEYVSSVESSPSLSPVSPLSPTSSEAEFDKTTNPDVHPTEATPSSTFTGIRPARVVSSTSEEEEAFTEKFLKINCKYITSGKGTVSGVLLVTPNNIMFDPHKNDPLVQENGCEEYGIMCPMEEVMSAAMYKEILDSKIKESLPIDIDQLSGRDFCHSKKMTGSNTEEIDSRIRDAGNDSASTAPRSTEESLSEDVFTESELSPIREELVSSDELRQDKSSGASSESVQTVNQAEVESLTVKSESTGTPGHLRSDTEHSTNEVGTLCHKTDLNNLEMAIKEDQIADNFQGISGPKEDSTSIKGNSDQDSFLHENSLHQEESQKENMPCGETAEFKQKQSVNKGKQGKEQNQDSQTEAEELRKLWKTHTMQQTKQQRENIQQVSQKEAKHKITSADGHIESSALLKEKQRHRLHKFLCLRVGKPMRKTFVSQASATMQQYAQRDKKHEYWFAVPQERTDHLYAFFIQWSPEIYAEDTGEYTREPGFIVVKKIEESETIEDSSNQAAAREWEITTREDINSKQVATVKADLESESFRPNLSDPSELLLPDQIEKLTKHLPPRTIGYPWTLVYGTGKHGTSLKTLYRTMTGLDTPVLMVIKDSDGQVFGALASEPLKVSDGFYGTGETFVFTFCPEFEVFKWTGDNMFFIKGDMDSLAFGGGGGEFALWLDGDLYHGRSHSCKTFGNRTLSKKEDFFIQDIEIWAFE

Assay [8] deals with T8, BCL2 associated athanogene 2 (human, UniProt O95816 2-211).
T8 construct: also called BAG2

The target of assay [9] is T9, HSPA (Hsp70) binding protein 1, transcript variant 2 (human, UniProt Q9NZL4 1-359).
T9 construct: also called HSPBP1
T9 sequence: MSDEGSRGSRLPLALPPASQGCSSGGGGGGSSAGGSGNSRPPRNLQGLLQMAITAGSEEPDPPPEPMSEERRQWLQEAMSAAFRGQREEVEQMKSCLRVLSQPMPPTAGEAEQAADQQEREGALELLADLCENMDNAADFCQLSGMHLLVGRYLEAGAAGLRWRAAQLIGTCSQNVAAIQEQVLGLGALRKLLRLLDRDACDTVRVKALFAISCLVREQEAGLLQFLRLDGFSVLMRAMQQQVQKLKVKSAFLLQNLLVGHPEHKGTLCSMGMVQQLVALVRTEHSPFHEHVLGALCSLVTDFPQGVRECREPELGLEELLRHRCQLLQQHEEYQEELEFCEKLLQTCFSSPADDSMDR

The target of assay [10] is T10, heat shock protein family A (Hsp70) member 2 (human, UniProt P54652 1-639).
T10 construct: also called HSPA2

Assay [11] concerns the target T11, coiled-coil domain containing 74B, transcript variant 2 (human, UniProt Q96LY2 1-380).
T11 construct: also called CCDC74B

T6 sequence (A0PJZ0 whole entry, the tested form may be a part): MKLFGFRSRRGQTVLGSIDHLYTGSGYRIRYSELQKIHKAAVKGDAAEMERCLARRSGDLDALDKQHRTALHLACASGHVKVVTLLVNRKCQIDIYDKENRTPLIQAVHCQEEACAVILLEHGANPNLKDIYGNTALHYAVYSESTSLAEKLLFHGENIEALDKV
T3 sequence (P26715 other isoform, or with tags, fused parts or gaps mutant limits assumed): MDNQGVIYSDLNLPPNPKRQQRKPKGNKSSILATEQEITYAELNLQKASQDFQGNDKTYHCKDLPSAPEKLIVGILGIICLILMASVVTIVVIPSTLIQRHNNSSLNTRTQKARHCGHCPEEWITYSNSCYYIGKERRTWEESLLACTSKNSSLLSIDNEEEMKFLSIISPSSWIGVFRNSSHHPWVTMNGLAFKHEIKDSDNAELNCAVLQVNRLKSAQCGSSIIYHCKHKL
T1 sequence (P54845 whole entry, change not shown): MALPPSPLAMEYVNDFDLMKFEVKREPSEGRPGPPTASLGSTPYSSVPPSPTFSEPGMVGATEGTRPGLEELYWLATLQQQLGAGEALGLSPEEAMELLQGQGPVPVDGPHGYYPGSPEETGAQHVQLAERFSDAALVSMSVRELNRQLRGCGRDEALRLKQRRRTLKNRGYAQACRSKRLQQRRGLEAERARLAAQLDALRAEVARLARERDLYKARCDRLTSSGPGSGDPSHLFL
T11 sequence (Q96LY2 other isoform, or with tags, fused parts or gaps mutant limits assumed): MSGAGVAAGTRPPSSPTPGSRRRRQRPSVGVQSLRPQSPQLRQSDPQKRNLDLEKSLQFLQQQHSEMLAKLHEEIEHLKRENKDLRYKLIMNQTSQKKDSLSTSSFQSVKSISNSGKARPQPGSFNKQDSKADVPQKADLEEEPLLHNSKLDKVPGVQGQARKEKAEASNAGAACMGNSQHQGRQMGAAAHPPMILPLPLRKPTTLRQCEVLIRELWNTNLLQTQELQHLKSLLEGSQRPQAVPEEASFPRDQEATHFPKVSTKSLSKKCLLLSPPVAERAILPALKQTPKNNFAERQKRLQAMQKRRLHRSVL
T8 sequence (O95816 2-211 limits assumed): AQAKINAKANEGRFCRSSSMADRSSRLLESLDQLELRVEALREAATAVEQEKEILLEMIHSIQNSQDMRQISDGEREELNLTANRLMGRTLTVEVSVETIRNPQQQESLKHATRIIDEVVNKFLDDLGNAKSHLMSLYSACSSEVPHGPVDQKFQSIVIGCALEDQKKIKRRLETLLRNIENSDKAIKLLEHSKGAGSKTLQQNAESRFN
T10 sequence (P54652 whole entry): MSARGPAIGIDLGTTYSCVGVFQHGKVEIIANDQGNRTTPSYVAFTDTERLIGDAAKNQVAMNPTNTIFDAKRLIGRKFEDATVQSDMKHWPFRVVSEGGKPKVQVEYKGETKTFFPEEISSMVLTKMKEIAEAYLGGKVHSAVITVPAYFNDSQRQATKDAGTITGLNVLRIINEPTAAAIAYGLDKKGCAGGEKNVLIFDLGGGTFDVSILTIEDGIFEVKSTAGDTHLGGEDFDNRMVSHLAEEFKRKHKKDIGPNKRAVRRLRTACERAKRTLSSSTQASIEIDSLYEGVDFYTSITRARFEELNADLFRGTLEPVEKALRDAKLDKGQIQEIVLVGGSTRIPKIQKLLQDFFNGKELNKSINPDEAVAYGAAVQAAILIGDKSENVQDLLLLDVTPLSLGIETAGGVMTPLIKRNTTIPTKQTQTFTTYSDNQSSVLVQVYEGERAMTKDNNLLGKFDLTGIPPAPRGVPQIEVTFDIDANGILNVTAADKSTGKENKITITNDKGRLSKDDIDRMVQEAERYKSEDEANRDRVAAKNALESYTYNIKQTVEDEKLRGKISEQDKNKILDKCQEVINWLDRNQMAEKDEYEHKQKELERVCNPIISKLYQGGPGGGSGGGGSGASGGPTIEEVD

B1: TSAR1001 (antibody, V domains shown)
VH: EVQLVESGGGMVQPGESLRLSCAASGFDFTSYWMAWVRQAPGKGLEWVANMNADGSEKHYVDSVKGRFSISRDNAKKLLFLQMNSLTVDDTGVYYCARDEGRREGAWGQGTQVIVSA
VL: EIVLTQSPATLSFSPGDRATLSCRASQNINRFLAWYQQKPGQTPRLLIYDASTRATGIPARFSGSGSGTDFSLIISSLEPEDFAIYYCQQRNNWPITFGPGTKVDVK
B1: the binding result in [1] is on record as “binds”.

B2: TBRE1036 (antibody, V domains shown)
VH: QVQLVESGGGVVQPGRSLRLSCAASGFTFSSYAMHWVRQAPGKGLEWVAVISYDGSNKYYADSLKGRFTISRDNSKDTLYLQVNSLRPEDTAVYYCARVNIAAAGTLDYWGQGTLVTVSS
VL: EIVLTQSPGTLSLSPGERATLSCRASQSVSSRYLAWYQQKPGQAPRLLIHGASSRATGIPDRFSGSGSGTDFTLTISRLEPEDFAVYYCQQYGSAWTFGQGTKVEIKR
notes: VH/VL only
Consider B2, for which, in assay [2], the binding result is on record as “binds”.

B3: TREC1003 (antibody, V domains shown)
VH: QVQLVQSGSEVKKPGASVRLACKTSGYTFSNYGVSWVRQGPGRGLEWLGWISGYNGRTHSADKFRDRVTLTTDTSTTTVYVDLKNLTSDDTAVYYCARVGTSHWYSDSWGQGTLVTVSS
VL: QSVLTQPPSVSGAPGQRVTISCAGSYSNIGAGYDVHWYRQLPGTAPTLLIYSNNNRPSGVSDRFSGSKSGTSASLAITGLQAEDEADYYCQSFDSSLSRSVFGTGTKVTVL
For B3, in assay [3], the binding result is “binds”.

B4: TPRO1002 (antibody, V domains shown)
VH: EVQLVESGGGVIKPGGSLKLSCEGSGFTLDDYVMHWVRQAPGKGLEWISSISGDGTRTYYADSVKGRFTISRNNGKNSLYLQMDSLRREDTALYYCAKDARLAYYGMDVWGQGTTVTVSS
VL: QSALTQPASVSGSPGQSITISCTGTSSDIGGYDLVSWYQHHPGKAPKLVISEGSKRPSGVSNRFFGSKSGNTASLTISGLQAEDEADYYCCSFTGTSTFVFGTGTKVTVL
Take B4: the binding result in [4], in assay [5] and in assay [6] was “binds” throughout.

B5: TPRO1001 (antibody, V domains shown)
VH: EVQLVQSGAEVKKPGESLRISCKGSGYSFTSFWISWVRQMPGKGLEWMGRIDPSDSYTNYSPSFQGHVTISADKSISTAFLQWSSLKASDTAMYYCARHQQKYSPISPLDYWGQGTLVTVSS
VL: QSALTQPASVSGSPGQSITISCTGTSSDVGGYNYVSWYQQHPGKAPKLMIYDVSNRPSGVSNRFSGSKSGNTASLTISGLQAEDEADYYCSSYTSSSSLVFGGGTKVTVLG
As for B5, the binding result in assay [7] is reported as “binds”.

B6: TSAR1005 (antibody, V domains shown)
VH: QVQLVESGGGVVQPGRSLRLSCVASGFTFSNYAMHWVRQAPGKGLEWVAVIWYDGSNEYYRDSVEGRFTISRDSSKNTLYLLVNSLRAEDTAVYYCARGNGPKSGKYSDFDYWGQGTLVTVSS
VL: DVVMTQSPLSLPVTLGQAASISCRSSQSLVYSDGNTYLNWFQQRPGQSPRRLIYKVSNRESGVPDRFSGSGSGTDFTLQISRVEAEDVGIYYCMQGAHWPPITFGQGTRLEIKR
In the case of B6, the binding result in assay [8], in [9] and in assay [10] was “binds” throughout.

B7: TSAR1003 (antibody, V domains shown)
VH: QLQLQESGPGLVKPSETLSLTCTVSGVSIGTSSYYWGWIRQPPAKGLEWIGSIYYSGSTYYNPSLKNRVTISVDTSKNHFSLKLSSVTAADTAVYYCARHRTGQYYYNSWGQGTLVTVSS
VL: SSELTQDPAVSVALGQTVRITCQGDSLRTDYATWYQQKPGQAPILVFYGEDNRPSGIPDRFSGSSSGNTASLTITGAQAEDEADYYCNSRDSSGHHWVFGGGTKLTVL
With B7, in assay [11], the binding result was “binds”.
